In patent US20150344570A1 (published 2015):

T1: FcγRIIb extracellular domain with C-terminal His tag (human, UniProt P31994 43-217)
T1 construct: extracellular domain; soluble analyte in Biacore; also called FcgRIIb; not shown: His tag at the C terminus
T1 sequence (looked up): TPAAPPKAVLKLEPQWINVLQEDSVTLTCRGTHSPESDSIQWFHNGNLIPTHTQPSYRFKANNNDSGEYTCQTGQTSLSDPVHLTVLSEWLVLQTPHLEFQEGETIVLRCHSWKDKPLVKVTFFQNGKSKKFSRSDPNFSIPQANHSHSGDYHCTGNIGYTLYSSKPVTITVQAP


Assays:
[1] = molecular target: T2, FcγRIa extracellular domain with C-terminal His tag (human, UniProt P12314 16-292); assay: SPR, binding relative to GpH7-A5/GpH7-B3/GpL16-k0 = 100
T2 construct: extracellular domain; soluble analyte in Biacore; also called FcgRI; not shown: His tag at the C terminus
T2 sequence (P12314 16-292): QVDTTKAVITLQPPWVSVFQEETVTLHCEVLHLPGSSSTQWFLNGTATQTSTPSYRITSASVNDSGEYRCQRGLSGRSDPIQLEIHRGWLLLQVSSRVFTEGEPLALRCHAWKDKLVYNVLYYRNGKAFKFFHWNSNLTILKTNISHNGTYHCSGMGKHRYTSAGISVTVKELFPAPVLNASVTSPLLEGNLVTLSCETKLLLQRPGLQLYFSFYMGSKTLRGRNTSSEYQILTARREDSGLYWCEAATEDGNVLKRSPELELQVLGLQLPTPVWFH

[2] = molecular target: T1, FcγRIIb extracellular domain with …; assay: as above

| Binder | He/Con_1a [1] | He/Con_2b [2] |
| --- | --- | --- |
| GpH7-A5/GpH7-B3 variant T335_05P/GpL16-k0 (antibody, human IgG1, kappa, change in the GpH7-B3 H chain only; also called He Ab) heavy 1: not shown heavy 2: not shown light: DIVMTQSPLSLPVTPGEPASISCQASESLVHSNRNTYLHWYLQKPGQSPQLLIYKVSNRFSGVPDRFSGSGSGTDFTLKISRVEAEDVGVYYCSQNTHVPPTFGQGTKVEIERTVAAPSVFIFPPSDEQLKSGTASVVCLLNNFYPREAKVQWKVDNALQSGNSQESVTEQDSKDSTYSLSSTLTLSKADYEKHKVYACEVTHQGLSSPVTKSFNRGEC | 106 % of control | 99.9 % of control |
| GpH7-A5/GpH7-B3 variant S324_11K/GpL16-k0 (antibody, human IgG1, kappa, change in the GpH7-B3 H chain only; also called He Ab) heavy 1: not shown heavy 2: not shown light: DIVMTQSPLSLPVTPGEPASISCQASESLVHSNRNTYLHWYLQKPGQSPQLLIYKVSNRFSGVPDRFSGSGSGTDFTLKISRVEAEDVGVYYCSQNTHVPPTFGQGTKVEIERTVAAPSVFIFPPSDEQLKSGTASVVCLLNNFYPREAKVQWKVDNALQSGNSQESVTEQDSKDSTYSLSSTLTLSKADYEKHKVYACEVTHQGLSSPVTKSFNRGEC | 102 % of control | 68.6 % of control |
| GpH7-A5/GpH7-B3 variant T335_12R/GpL16-k0 (antibody, human IgG1, kappa, change in the GpH7-B3 H chain only; also called He Ab) heavy 1: not shown heavy 2: not shown light: DIVMTQSPLSLPVTPGEPASISCQASESLVHSNRNTYLHWYLQKPGQSPQLLIYKVSNRFSGVPDRFSGSGSGTDFTLKISRVEAEDVGVYYCSQNTHVPPTFGQGTKVEIERTVAAPSVFIFPPSDEQLKSGTASVVCLLNNFYPREAKVQWKVDNALQSGNSQESVTEQDSKDSTYSLSSTLTLSKADYEKHKVYACEVTHQGLSSPVTKSFNRGEC | 113 % of control | 91.9 % of control |
| GpH7-A5/GpH7-B3 variant S324_14T/GpL16-k0 (antibody, human IgG1, kappa, change in the GpH7-B3 H chain only; also called He Ab) heavy 1: not shown heavy 2: not shown light: DIVMTQSPLSLPVTPGEPASISCQASESLVHSNRNTYLHWYLQKPGQSPQLLIYKVSNRFSGVPDRFSGSGSGTDFTLKISRVEAEDVGVYYCSQNTHVPPTFGQGTKVEIERTVAAPSVFIFPPSDEQLKSGTASVVCLLNNFYPREAKVQWKVDNALQSGNSQESVTEQDSKDSTYSLSSTLTLSKADYEKHKVYACEVTHQGLSSPVTKSFNRGEC | 121 % of control | 88.4 % of control |
| GpH7-A5/GpH7-B3 variant S324_16H/GpL16-k0 (antibody, human IgG1, kappa, change in the GpH7-B3 H chain only; also called He Ab) heavy 1: not shown heavy 2: not shown light: DIVMTQSPLSLPVTPGEPASISCQASESLVHSNRNTYLHWYLQKPGQSPQLLIYKVSNRFSGVPDRFSGSGSGTDFTLKISRVEAEDVGVYYCSQNTHVPPTFGQGTKVEIERTVAAPSVFIFPPSDEQLKSGTASVVCLLNNFYPREAKVQWKVDNALQSGNSQESVTEQDSKDSTYSLSSTLTLSKADYEKHKVYACEVTHQGLSSPVTKSFNRGEC | 113 % of control | 83.5 % of control |

Other lines, results leading:

| He/Con_1a [1] | He/Con_2b [2] | Binder |
| --- | --- | --- |
| 102 % of control | 63.1 % of control | GpH7-A5/GpH7-B3 variant S324_12R/GpL16-k0 (antibody, human IgG1, kappa, change in the GpH7-B3 H chain only; also called He Ab) heavy 1: not shown heavy 2: not shown light: DIVMTQSPLSLPVTPGEPASISCQASESLVHSNRNTYLHWYLQKPGQSPQLLIYKVSNRFSGVPDRFSGSGSGTDFTLKISRVEAEDVGVYYCSQNTHVPPTFGQGTKVEIERTVAAPSVFIFPPSDEQLKSGTASVVCLLNNFYPREAKVQWKVDNALQSGNSQESVTEQDSKDSTYSLSSTLTLSKADYEKHKVYACEVTHQGLSSPVTKSFNRGEC |
| 111 % of control | 91 % of control | GpH7-A5/GpH7-B3 variant T335_11K/GpL16-k0 (antibody, human IgG1, kappa, change in the GpH7-B3 H chain only; also called He Ab) heavy 1: not shown heavy 2: not shown light: DIVMTQSPLSLPVTPGEPASISCQASESLVHSNRNTYLHWYLQKPGQSPQLLIYKVSNRFSGVPDRFSGSGSGTDFTLKISRVEAEDVGVYYCSQNTHVPPTFGQGTKVEIERTVAAPSVFIFPPSDEQLKSGTASVVCLLNNFYPREAKVQWKVDNALQSGNSQESVTEQDSKDSTYSLSSTLTLSKADYEKHKVYACEVTHQGLSSPVTKSFNRGEC |
| 104 % of control | 96.7 % of control | GpH7-A5/GpH7-B3 variant T335_01G/GpL16-k0 (antibody, human IgG1, kappa, change in the GpH7-B3 H chain only; also called He Ab) heavy 1: not shown heavy 2: not shown light: DIVMTQSPLSLPVTPGEPASISCQASESLVHSNRNTYLHWYLQKPGQSPQLLIYKVSNRFSGVPDRFSGSGSGTDFTLKISRVEAEDVGVYYCSQNTHVPPTFGQGTKVEIERTVAAPSVFIFPPSDEQLKSGTASVVCLLNNFYPREAKVQWKVDNALQSGNSQESVTEQDSKDSTYSLSSTLTLSKADYEKHKVYACEVTHQGLSSPVTKSFNRGEC |
| 104 % of control | 85.8 % of control | GpH7-A5/GpH7-B3 variant S324_09D/GpL16-k0 (antibody, human IgG1, kappa, change in the GpH7-B3 H chain only; also called He Ab) heavy 1: not shown heavy 2: not shown light: DIVMTQSPLSLPVTPGEPASISCQASESLVHSNRNTYLHWYLQKPGQSPQLLIYKVSNRFSGVPDRFSGSGSGTDFTLKISRVEAEDVGVYYCSQNTHVPPTFGQGTKVEIERTVAAPSVFIFPPSDEQLKSGTASVVCLLNNFYPREAKVQWKVDNALQSGNSQESVTEQDSKDSTYSLSSTLTLSKADYEKHKVYACEVTHQGLSSPVTKSFNRGEC |
| 103 % of control | 94 % of control | GpH7-A5/GpH7-B3 variant T335_02A/GpL16-k0 (antibody, human IgG1, kappa, change in the GpH7-B3 H chain only; also called He Ab) heavy 1: not shown heavy 2: not shown light: DIVMTQSPLSLPVTPGEPASISCQASESLVHSNRNTYLHWYLQKPGQSPQLLIYKVSNRFSGVPDRFSGSGSGTDFTLKISRVEAEDVGVYYCSQNTHVPPTFGQGTKVEIERTVAAPSVFIFPPSDEQLKSGTASVVCLLNNFYPREAKVQWKVDNALQSGNSQESVTEQDSKDSTYSLSSTLTLSKADYEKHKVYACEVTHQGLSSPVTKSFNRGEC |
